Test [1] has as its target T1, human FcγRIIIaV extracellular domain with C-terminal His-tag (human, UniProt P08637 17-208).
T1 construct: also called human FcgRIIIaV
The test can be described thus: SPR (Biacore), antibody captured, FcgR analyte. The procedure: (§1) The kinetic analysis of interactions between these antibodies and FcγR was carried out using BIACORE® T200 or BIACORE® 4000 (GE Healthcare). HBS-EP+ (GE Healthcare) was used as the running buffer, and the measurement temperature was set to 25° C. […] After the measurement, the antibody captured on the chip was washed off by allowing reaction with 10 mM glycine-HCl, pH1.5 and 25 mM NaOH so that the chip was regenerated and used repeatedly. The sensorgrams obtained as measurement results were analyzed by the 1:1 Langmuir binding model using the BIACORE® Evaluation Software to calculate the binding rate constant ka (L/mol/s) and dissociation rate constant kd (1/s), and the dissociation constant KD (mol/L) was calculated from these values. […] Regarding such interactions, KD values were calculated using the following 1:1 binding model described in BIACORE® T100 Software Handbook BR1006-48 Edition AE.

The target of test [2] is T2, human FcγRIIaR extracellular domain with C-terminal His-tag (human, UniProt P12318 34-217).
T2 construct: also called human FcgRIIaR; FcγRIIa (type R)
T2 chain: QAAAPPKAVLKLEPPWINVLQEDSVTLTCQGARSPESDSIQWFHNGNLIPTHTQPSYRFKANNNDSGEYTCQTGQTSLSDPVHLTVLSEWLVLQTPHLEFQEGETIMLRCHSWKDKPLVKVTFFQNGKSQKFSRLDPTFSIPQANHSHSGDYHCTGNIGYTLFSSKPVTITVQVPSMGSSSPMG
The test can be described thus: SPR (Biacore), antibody captured, FcgR analyte. The procedure: as §1

Test [3] deals with T3, cynomolgus monkey FcγRIIa3 extracellular domain with C-terminal His-tag (cynomolgus monkey).
T3 construct: also called cyno FcgRIIa3; cynoFcγRIIa3
T3 chain: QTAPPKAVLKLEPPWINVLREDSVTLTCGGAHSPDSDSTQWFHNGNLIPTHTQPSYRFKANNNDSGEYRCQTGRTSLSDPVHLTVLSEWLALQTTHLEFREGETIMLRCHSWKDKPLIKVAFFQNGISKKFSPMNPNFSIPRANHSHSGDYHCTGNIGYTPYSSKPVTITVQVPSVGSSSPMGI
The test can be described thus: SPR (Biacore), KD of SG1 / KD of variant. The method, then:
as §1

T1 sequence (P08637 17-208 F176V): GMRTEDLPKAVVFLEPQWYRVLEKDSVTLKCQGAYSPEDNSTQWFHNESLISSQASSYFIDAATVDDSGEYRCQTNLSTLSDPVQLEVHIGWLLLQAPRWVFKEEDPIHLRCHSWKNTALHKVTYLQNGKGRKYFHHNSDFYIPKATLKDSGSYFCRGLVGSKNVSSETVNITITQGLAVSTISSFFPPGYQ

B1: M103205H795-MY265/M103202L889-SK1 (antibody)
heavy: QVTLKESGPVLVKPTETLTLTCTVSGIDLSHDDISWVRQAPGKGLEWVGIISYAGSTYYASWAKGRLTISKDTSKNQVVLTMTNMDPVDTATYYCARGVPAYSHGGDLWGQGTLVTVSSASTKGPSVFPLAPSSKSTSGGTAALGCLVKDYFPEPVTVSWNSGALTSGVHTFPAVLQSSGLYSLSSVVTVPSSSLGTQTYICNVNHKPSNTKVDKKVEPKSCDKTHTCPPCPAPELLTGPSVFLFPPKPKDTLMISRTPEVTCVVVDVSDEDPEVKFNWYVDGVEVHNAKTKPREEQYNSTYRVVSVLTVLHQDWLNGKEYKCKVSNKALPKPIEKTISKAKGQPREPQVYTLPPSREEMTKNQVSLTCLVKGFYPSDIAVEWESNGQPENNYKTTPPVLDSDGSFFLYSKLTVDKSRWQQGNVFSCSVMHEALHNHYTQKSLSLSP
light: DIVMTQSPATLSLSPGERATLSCTSSQSVYHANWLSWFQQKPGQPPKLLIYWASTLAYGVPSRFSGSGSGTDFTLTISSLQPEDAATYYCAGGYGGGRYAFGQGTKVEIKRTVAAPSVFIFPPSDEQLKSGTASVVCLLNNFYPREAKVQWKVDNALQSGNSQESVTEQDSKDSTYSLSSTLTLSKADYEKHKVYACEVTHQGLSSPVTKSFNRGEC
notes: Substitutions in EU numbering on SG1; the cell prints I236T, the text gives Thr at 236 of MY201 (G236T)
B1 had a Kd in test [1] of 5400 nM.

B2: M103205H795-MY448/M103202L889-SK1 (antibody, human IgG1, kappa)
heavy: QVTLKESGPVLVKPTETLTLTCTVSGIDLSHDDISWVRQAPGKGLEWVGIISYAGSTYYASWAKGRLTISKDTSKNQVVLTMTNMDPVDTATYYCARGVPAYSHGGDLWGQGTLVTVSSASTKGPSVFPLAPSSKSTSGGTAALGCLVKDYFPEPVTVSWNSGALTSGVHTFPAVLQSSGLYSLSSVVTVPSSSLGTQTYICNVNHKPSNTKVDKKVEPKSCDKTHTCPPCPAKELLTGPSVFLFPPKPKDTLMISRTPEVTCVVVDVSDEDPEVKFNWYVDGVEVHNAKTKPREEQYNSTYRVVSVLTVLHQDWLNGKEYKCKVSNKALPKPIEKTISKAKGQPREPQVYTLPPSREEMTKNQVSLTCLVKGFYPSDIAVEWESNGQPENNYKTTPPVLDSDGSFFLYSKLTVDKSRWQQGNVFSCSVMHEALHNHYTQKSLSLSP
light: DIVMTQSPATLSLSPGERATLSCTSSQSVYHANWLSWFQQKPGQPPKLLIYWASTLAYGVPSRFSGSGSGTDFTLTISSLQPEDAATYYCAGGYGGGRYAFGQGTKVEIKRTVAAPSVFIFPPSDEQLKSGTASVVCLLNNFYPREAKVQWKVDNALQSGNSQESVTEQDSKDSTYSLSSTLTLSKADYEKHKVYACEVTHQGLSSPVTKSFNRGEC
notes: Substitutions in EU numbering on SG1
For B2, the Kd in test [2] was 21 nM; in test [1], 1300 nM. The “KD fold (SG1 = 1)” value in test [3] is 0.6 fold.

The record behind these values is patent US20250076311A1 (Chugai, published 2025).
